Source: publication PMC2766623, “The Vitamin B1 Metabolism of Staphylococcus aureus Is Controlled at Enzymatic and Transcriptional Levels” (PLoS ONE, 2009)

Tests used:
[1] = target: S. aureus thiaminase type II (SaTenA) (Staphylococcus aureus ATCC25923); assay: SEC-MALS; Superdex 200 10/30 size exclusion column followed by static light scattering (miniDAWN Tristar); 100 mM Tris-HCl buffer, pH 8, 150 mM NaCl; affinity purified proteins
[2] = target: S. aureus 5-(2-hydroxyethyl)-4-methylthiazole (THZ) kinase (SaThiM) (Staphylococcus aureus ATCC25923); assay: as above
[3] = target: S. aureus 4-amino-5-hydroxymethyl-2-methylpyrimidine (HMP) kinase (SaThiD) (Staphylococcus aureus ATCC25923); assay: as above
[4] = target: T1, SaGTPase (Staphylococcus aureus, UniProt P67682); assay: phosphate release, malachite green; format: biochemical; settings: 1 mM substrate, 1 mM MgCl2, 100 mM MOPS pH 7.5, 37°C
T1 construct: gene rsgA; monomer; gtpase-epi-tpk operon
T1 sequence (P67682 1-291): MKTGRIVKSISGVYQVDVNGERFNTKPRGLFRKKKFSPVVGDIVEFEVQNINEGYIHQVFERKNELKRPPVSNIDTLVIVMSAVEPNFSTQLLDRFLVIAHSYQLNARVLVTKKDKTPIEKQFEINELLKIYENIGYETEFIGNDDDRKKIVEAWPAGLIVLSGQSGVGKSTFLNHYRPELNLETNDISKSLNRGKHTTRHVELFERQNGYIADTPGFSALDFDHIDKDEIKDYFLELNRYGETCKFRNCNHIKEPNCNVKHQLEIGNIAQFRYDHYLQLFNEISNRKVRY

[5] = substrate: Cc1ncc(C[n+]2csc(CCO)c2C)c(N)n1; assay: thiamine hydrolysis, products HMP/THZ measured by radiometric kinase assay, TLC, Lineweaver-Burk; format: biochemical, Staphylococcus aureus; settings: 100 mM Tris-HCl pH 7.5, 37°C, no nucleophile needed
Description: thiamine hydrolysis, products HMP/THZ measured by radiometric kinase assay, TLC, Lineweaver-Burk on SaTenA

[6] = substrate: Cc1ncc(COP(=O)(O)OP(=O)(O)O)c(N)n1; assay: purified protein; format: biochemical, Staphylococcus aureus; settings: co-substrate THZ-[33P] (THZ phosphate), 37°C
[7] = substrate: Cc1ncc(CO)c(N)n1; assay: radiometric [gamma-33P]-ATP phosphorylation, TLC, Lineweaver-Burk; format: biochemical, Staphylococcus aureus; settings: 1 mM ATP, 2 mM MgCl2, 100 mM potassium phosphate pH 7.5, 37°C
Description: radiometric [gamma-33P]-ATP phosphorylation, TLC, Lineweaver-Burk on SaThiD

[8] = substrate: Cc1ncc(C[n+]2csc(CCO)c2C)c(N)n1; assay: purified protein; format: biochemical, Staphylococcus aureus; settings: 2 mM ATP, 4 mM MnCl2, 100 mM Tris-HCl pH 8.5, 37°C

“S. aureus thiaminase type II (SaTenA) (enzyme)” was tested, and the stoichiometry N [1] was 3.

“S. aureus 5-(2-hydroxyethyl)-4-methylthiazole (THZ) kinase (SaThiM) (enzyme)” showed a stoichiometry N [2] of 2.

“S. aureus 4-amino-5-hydroxymethyl-2-methylpyrimidine (HMP) kinase (SaThiD) (enzyme)” gave a stoichiometry N [3] of 2.

In the case of Nc1nc2c(ncn2[C@@H]2O[C@H](COP(=O)(O)OP(=O)(O)OP(=O)(O)O)[C@@H](O)[C@H]2O)c(=O)[nH]1 [GTP], the “phosphate release, malachite green” value [4] is reported as “the S. aureus GTPase is not restricted to GTP and exhibits a broad substrate spectrum”.

B1: SaTenA (Staphylococcus aureus subsp. aureus NCTC 8325) (protein)
chain: MEFSQKLYQAAKPIINDIYEDDFIQKMLSGDIGADALRHYLKADAAYLKEFTNLYALLIPKMNSMNDVKFLVEQIEFMVEGEVLAHDILAQIVGESYEEIIKTKVWPPSGDHYIKHMYFQAHSRENAIYTIAAMAPCPYIYAELAKRSQSDHKLNREKDTAKWFDFYSTEMDDIINVFEAIMNKLAESMSDKELEQVKQVFLESCIHERRFFNMAMTLEQWEFGGKVND
notes: trimer by SLS
B1 was tested, and the Km [5] was 256 ± 44 µM and the kcat [5] was 0.0017 ± 0.00033 s⁻¹.

B2: SaThiE (Staphylococcus aureus subsp. aureus NCTC 8325) (protein)
chain: MFNQSYLNVYFICGTSDVPSHRTIHEVLEAALKAGITLFQFREKGESALKGNDKLVLAKELQHLCHQYDVPFIVNDDVSLAKEINADGIHVGQDDAKVKEIAQYFTDKIIGLSISDLDEYAKSDLTHVDYIGVGPIYPTPSKHDAHIPVGPEMIATFKEMNPQLPIVAIGGINTNNVAPIVEAGANGISVISAISKSENIEKTVNRFKDFFNN
notes: low yield, three bands on SDS-PAGE
Work on B2 yielded a Km [6] of 145 ± 36 µM.

B3: SaThiD (Staphylococcus aureus subsp. aureus N315) (protein)
chain: MIKPKIALTIAGTDPTGGAGVMADLKSFHSCGVYGMGVVTSIVAQNTLGVQHIHNLNHQWVDEQLDSVFNDTLPHAIKTGMIATADTMETIRHYLMQHESIPYVIDPVMLAKSGDSLMDNDTKQNLQHTLLPLADVVTPNLPEAEEITGLTIDSEEKIMQAGRIFINEIGSKGIIIKGGHSNDTDIAKDYLFTNEGVQTFENERFKTKHTHGTGCTFSAVITAELAKGRPLFEAVHKAKKFISMSIQYTPEIGRGRGPVNHFAYLKKEGLDDELSK
notes: dimer; 831 bp ORF in tenA-thiM-thiD-thiE operon
Work on B3 yielded a Km [7] of 635 ± 20 µM and a kcat [7] of 0.012 ± 0.00083 s⁻¹.

B4: SaTPK (Staphylococcus aureus subsp. aureus NCTC 8325) (protein)
chain: MHINLLCSDRHLPQDIWAKSNEGKWGGVDRGALILLKHQIIPFFSVGDFDSVSKEERQLLTEQLQIKPVQAEKADTDLALAVDKAVALGFDSITIYGATGGRLDHFFGAIQLLLKKAYYKHDVHIEVIDQQNKIELLPKGQHTVEKDKSYPYISFIPMTDDVELSLAGFKYNLARQMLNIGSTLTISNEIESLQAKVTVHDGLILQIRSTDLN
notes: monomer; gtpase-epi-tpk operon
B4 was tested, and the Km [8] was 394 ± 74 µM and the kcat [8] was 0.0083 ± 0.0012 s⁻¹.
